The record followed here is patent US20150306174A1 (NEW YORK BLOOD CENTER, published 2015).

Ends that are not written are not given here.

The target of data set [1] is T1, C34 (HIV-1).
T1 construct: also called CHR-peptide C34; C-peptide C34
Nature of the data set: CD spectroscopy of the N-peptide/C-peptide mixture in PBS.

In data set [2] the target is T1, C34. The experiment in a line: CD thermal denaturation monitored at 222 nm.

B1: N28 (peptide)
peptide: IEAQQHLLQLTVWGIKQLQARILAVERY
notes: Residue numbers count on HIV-1 HXB2 gp160; also called N28 peptide; free N28 peptide
In the case of B1, in data set [1], the binding result is recorded as “no binding (tested: 10 µM)”.

B2: N28Fd trimer (designed binder)
chain: IEAQQHLLQLTVWGIKQLQARILAVERYGYIPEAPRDGQAYVRKDGEWVLLSTFL
modifications: also: trimer
notes: It gives the full length as 55 residues; also called FdN28Fd1
Take B2: the “Tm of the complex” value in data set [2] amounted to 62.2 ° C.
